In patent publication US10053668B2, “Reprogramming bone endothelial cells for use in bone angiogenesis and osteogenesis” (MAX-PLANCK-GESELLSCHAFT ZUR FÖRDERUNG DER WISSENSCHAFTEN …, priority 2013, dated 2018):
“Also recorded” adds a separate entry of the source. Structures can show the parent of a compound that is named as a salt.

Key:
[1] = DFM treatment of aged mice, μ-CT analysis of tibia; assay type: in vivo, mouse; conditions: 6 weeks of DFM treatment, compared to aged control mice
Protocol: […] […] Animals in the control group were injected with same amount of sterile water.
Tibiae were collected, and the attached soft tissue was removed thoroughly and fixed in 4% paraformaldehyde. The fixed tibiae were analyzed using micro-CT (μCT 35) and software IPL V5.15 at Scanco Medical AG, Switzerland. A voxel size of 12 μm was chosen in all three spatial dimensions. For each sample, 148 from 232 slices were evaluated covering a total of 1.776 mm at a voltage of 70kVp, intensity 114 μA, integration time 1200 ms.

long bone = assay: DFM treatment of aged mice, qPCR of osteoprogenitor and osteoblast markers in long bone; assay type: in vivo, mouse; conditions: DFM-treated vs control
Protocol: For DFM treatment, freshly prepared deferoxamine mesylate (Sigma) in water was injected intraperitoneally every alternate day at the dose of 15 mg/ml per mouse over four weeks. For μ-CT analysis, this treatment was continued for five weeks. Animals in the control group were injected with same amount of sterile water.
For the analysis of mRNA expression levels in type H or type L endothelium, CD31^hi/Emcn^hi and CD31^lo/Emcn^lo cells were sorted by FACS directly into the lysis buffer of the RNeasy Mini Kit (QIAGEN). Total RNA was isolated according to manufacturer's protocol. A total of 100 ng RNA per reaction was used to generate cDNA with the iScript cDNA Synthesis System (Bio-Rad). Quantitative PCR (qPCR) was performed using TaqMan gene expression assays on ABI PRISM 7900HT Sequence Detection System. The FAM-conjugated TaqMan probes Tgfb1, Tgfb3, Fgf1, Pdgfa, Pdgfb and Kitl were used along with TaqMan Gene Expression Master Mix (Applied Biosystems). Gene expression assays were normalized to endogenous VIC-conjugated Actb probes as standard. For analysis of mRNA expression levels from whole bones, dissected femurs were immediately crushed finely, digested with collagenase, centrifuged to obtain a pellet, which was then lysed into lysis buffer of RNeasy Mini Kit (QIAGEN). […]

[2] = tested on: bone endothelial cells (BECs); assay: DFM treatment of cultured primary bone endothelial cells, qPCR mRNA analysis; assay type: cell-based, mouse; conditions: isolated primary bone endothelial cells; DFM 6.25 mg/ml of culture medium, 7 hrs; qPCR vs vehicle
Protocol: Tibiae and femurs from wild-type mice or mice expressing endothelial specific reporters (Flk1 GFP and Cdh5 mtmg mice) or wild-type mice were collected in sterile Ca^2+ and Mg^2+ free PBS, crushed with mortar and pestle, digested with Collagenase A (Sigma) to obtain a single cell suspension. ECs were then MACS sorted using endomucin antibody (cat. no. SC-65495) and Dynabeads sheep anti-Rat IgG (Invitrogen). Sorted ECs were then plated on dishes coated with fibronectin and cultured in endothelial cell growth medium (EBM-2, Clonetics; Lonza) supplemented with EGM-2 SingleQuots (CC-4176, Clonetic; Lonza). At first passage, cells were again MACS sorted with endomucin antibody and plated for culture. Cells were fed every third day and passaged upon confluency. […]
For the analysis of mRNA expression levels in type H or type L endothelium, CD31^hi/Emcn^hi and CD31^lo/Emcn^lo cells were sorted by FACS directly into the lysis buffer of the RNeasy Mini Kit (QIAGEN). […] Quantitative PCR (qPCR) was performed using TaqMan gene expression assays on ABI PRISM 7900HT Sequence Detection System. […]
For the analysis of mRNA expression levels, pure total bone endothelial cells were flow-sorted directly into the lysis buffer of RNeasy Mini Kit (QIAGEN). […] Quantitative PCR (qPCR) was performed using TaqMan gene expression assays on ABI PRISM 7900HT Sequence Detection System. […]

[3] = tested on: type H endothelium (CD31^hi/Emcn^hi vessels); assay: DFM treatment of aged mice, CD31/Osterix immunostaining of tibia sections; assay type: in vivo; conditions: aged 64 to 70 week-old mice; DFM i.p. every alternate day, 15 mg/ml per mouse, four weeks; vs vehicle control
Excerpt: 3-4 weeks old male C57BL/6J mice were used for experiments involving analysis of juvenile mice. For the characterization of changes during aging, 9-11 week-old and 60-70 week-old C57BL/6J males were used as adults and aged mice, respectively. All EC-specific gene deletions were generated using Cdh5(PAC)-CreERT2 transgenic mice, which were interbred with conditional mutants carrying loxP-flanked Hif1α alleles (Hif1α^lox/lox). For experiments, Cdh5(PAC)-CreERT2^T/+ Hif1α^lox/lox were mated with Hif1α^lox/lox females. To induce Cre activity and gene deletion, pups were injected with 500 μg tamoxifen (Sigma, T5648) intraperitoneally everyday from postnatal day (P) 10 to P14. Femurs and tibiae from Cdh5(PAC)-CreERT2^T/+ Hif1α^lox/lox (Hif1α^iΔEC) mutants and Cre-negative (Hif1α^lox/lox) controls were collected on P28 after euthanasia. The same methodology was followed for gene deletion experiments involving conditional Vhl mice. For the specific genetic labeling of metaphyseal vasculature Cdh5(PAC)-CreERT2^T/+ mice were mated with Rosa26-mG/mT reporter line. At P29, Cdh5(PAC)-CreERT2^T/+/R26-mG/mT^d/+ mice received a single dose of 50 μg tamoxifen and were analyzed either 24 hrs (1 day) later or 40 days later. […]
For phenotypic analysis, mutant and littermate control samples were always processed, sectioned, stained, imaged and analysed together at the same conditions and settings. […]

Rbpj^iΔEC mice [4] = assay: Systemic recombinant Noggin in Rbpj^iΔEC mice, immunostaining of tibia sections; assay type: in vivo, mouse
Excerpt: For Rbpj deletion in the postnatal vasculature, mice carrying loxP-flanked Rbpj gene (Rbpj^floxed) were interbred with mice expressing endothelial specific tamoxifen inducible CreERT2 i.e. Cdh5(PAC)-CreERT2. The males with genotype Rbpj^floxed/floxed Cdh5(PAC)-CreERT2^T/+ were interbred with Rbpj^floxed/floxed females to generate litters with Rbpj^floxed/floxed Cdh5(PAC)-CreERT2^T/+ (Rbpj^iΔEC) and Rbpj^floxed/floxed (control) genotypes. To induce Cre activity and gene deletion, all the litters were injected with 500 μg tamoxifen (Sigma, T5648) intraperitoneally everyday from P10 to P14. Femur and tibia were collected from these animals for analysis on P28 after euthanasia. The same methodology was followed for all gene deletion experiments of Fbxw7 ^iΔEC, Dll^iΔEC, Dll4^iΔEC, Jag1^iΔEC and Rbpj^iΔOB. For osteoblast specific loss of function experiments, Col1α1-CreERT2 mice (embryos purchased from Institut Clinique de la Souris, France) were interbred with Rbpj^floxed/floxed mice. Further, Rbpj floxed/floxed Col1a1-CreERT2^T/+ males were interbred with Rbpj^floxed/floxed females to generate litters with Rbpj^floxed/floxed Col1aCreERT2^T/+ (Rbpj^iΔOB) and Rbpj^floxed/floxed (control) genotypes.
(§1) For experiments involving Noggin treatment, both control and Rbpj^iΔEC mice were injected intraperitoneally once daily with 500 μg/kg recombinant Noggin (1967-NG, R&D Systems) dissolved in PBS in a volume of 50 μl per dose. Another set of control and Rbpj^iΔEC mice was injected with 50ul PBS for experimental control. All protein injections were done from P15 to P27, after tamoxifen treatment (P10-P14) before the day of analysis (P28).
Freshly dissected bone tissues collected from wild-type mice or from mutants and their control littermates were immediately fixed in ice-cold 4% paraformaldehyde solution for 4 hrs. Decalcification was carried out with 0.5M EDTA at 4° C. with constant shaking and decalcified bones were immersed into 20% sucrose and 2% polyvinylpyrrolidone (PVP) solution for 24 hr. Finally, the tissues were embedded and frozen in 8% gelatin (porcine) in presence of 20% sucrose and 2% PVP. For immunofluorescent stainings and morphological analyses, sections were generated using low-profile blades on a Leica CM3050 cryostat.
For phenotypic analysis, mutant and littermate control samples were always processed, sectioned, stained, imaged and analysed together at the same conditions and settings. For immunostaining, bone sections were air-dried, permeabilised for 10 min in 0.3% Triton X-100, blocked in 5% donkey serum at room temperature for 30 min, and probed with the primary antibodies diluted in 5% donkey serum in PBS for 2 hr at room temperature (RT) or overnight at 4° C.
Following are the details of primary antibodies used: Endomucin (sc-65495, Santa Cruz) used at 1:100 dilution; Pecam1 conjugated to Alexa fluor 488 (FAB3628G, R&D Systems) used at dilution 1:100; Pecam1 (553370, BD Pharmingen) used at 1:100 dilution; Osterix (sc-22536-R, Santa Cruz) used at dilution 1:200; Runx2 (MAB2006, R&D Systems) used at dilution 1:200; alpha SMA-Cy3 (C6198, Sigma) used at dilution 1:100; Hif1α (ab65979, Abcam) used at dilution 1:100; Collagen type 1 (AB675P; Millipore); Osteopontin (AF808, R&D Systems) used at dilution of 1:200, Mct4 (sc-50329 Santa Cruz) used at dilution of 1:100 and Glut1 (07-1401, Millipore) used at dilution of 1:100, NG2 Chondroitin Sulphate Proteoglycan (AB5320, Millipore) used at a dilution of 1:100.

[5] = tested on: murine mesenchymal progenitors; assay: Osteoblastic differentiation of cultured murine mesenchymal progenitors with Noggin; assay type: cell-based, mouse; conditions: in vitro, recombinant Noggin
Rbpj^iΔEC mice [6] = assay: Systemic recombinant Noggin in Rbpj^iΔEC mice, calcein double labelling; assay type: in vivo, mouse; conditions: Noggin 500 μg/kg i.p. once daily P15 to P27, 7 day interval
Protocol: as §1
Calcein double labeling was performed to calculate mineral apposition rate (MAR).
Mice were given intraperitoneal injections of 10 mg/kg calcein (Sigma, C0875) dissolved in 2% sodium bicarbonate solution at 10th day and 3rd day before euthanasia. Bones were fixed in 4% PFA, embedded in 8% gelatin and 2% PVP and cryosectioned. Single plane images were acquired from the sections using LSM 780 (Carl Zeiss). Mineral Apposition Rate (MAR) is the amount of bone formed during a particular time interval. It is calculated using the distance between the midpoints of two labels divided by time interval (7days).

[7] = Rbpj^iΔEC mice, Noggin 500 μg/kg i.p. once daily P15 to P27, analysis P28, vs saline-treated mutants

| Molecule | bone mass (μ-CT) [1] | expression levels of mRNAs Sp7, Bglap and lbsp in long bone (long bone) | expression of growth factor mRNAs Pdgfa, Pdgfb, Fgf1, Tgfb1, Tgfb3 [2] | transcripts for CD31 and Endomucin [2] | Osterix-positive cells (osteoprogenitors) in association with type H vessels [3] | type H endothelium (CD31^hi/Emcn^hi vessels) in long bone [3] | Endomucin staining intensity (Rbpj^iΔEC mice [4]; Noggin-treated Rbpj^iΔEC tibia sections) | abundance of Runx2+ early osteoprogenitors in metaphysis (Rbpj^iΔEC mice [4]; [7]) | number of Osterix+ (Osx+) cells in metaphysis (Rbpj^iΔEC mice [4]; [7]) | organization of the Rbpj^iΔEC metaphysis (Rbpj^iΔEC mice [4]; [7]) | organization of the Rbpj^iΔEC bone vasculature (endothelial column and arch structures) (Rbpj^iΔEC mice [4]; Rbpj^iΔEC mice, Noggin 500 μg/kg i.p. once daily P15 to P27, endomucin immunostaining) | trabecular bone formation (osteopontin immunostaining) (Rbpj^iΔEC mice [4]; Rbpj^iΔEC mice, recombinant Noggin vs Saline) | differentiation of primary mesenchymal cells into osteoblasts [5] | alkaline phosphatase (ALP) expression ([5]; 28 days of differentiation) | mineral nodule formation (Alizarin staining; osteoblast maturation) ([5]; 28 days of differentiation) | bone formation and mineral apposition rate (Rbpj^iΔEC mice [6]) | bone formation and mineral apposition rate (Rbpj^iΔEC mice [6]; listed as noggin) |
| --- | --- | --- | --- | --- | --- | --- | --- | --- | --- | --- | --- | --- | --- | --- | --- | --- | --- |
| CC(=O)N(O)CCCCCNC(=O)CCC(=O)N(O)CCCCCNC(=O)CCC(=O)N(O)CCCCCN [DFM, deferoxamine mesylate] | significant increase | significantly increased | induction; also recorded: increase | up regulation | induces; also recorded: emergence | induces; also recorded: substantial expansion | – | – | – | – | – | – | – | – | – | – | – |
| Noggin: recombinant Noggin (1967-NG, R&D Systems); secreted protein that binds and antagonises bone morphogenetic proteins (BMPs) (protein, UniProt Q13253 28-232, looked up) Noggin: QHYLHIRPAPSDNLPLVDLIEHPDPIFDPKEKDLNETLLRSLLGGHYDPGFMATSPPEDRPGGGGGAAGGAEDLAELDQLLRQRPSGAMPSEIKGLEFSEGLAQGKKQRLSKKLRRKLQMWLWSQTFCPVLYAWNDLGSRFWPRYVKVGSCFSKRSCSVPEGMVCKPSKSVHLTVLRWRCQRRGGQRCGWIPIQYPIISECKCSC | – | – | – | – | – | – | increased | increases | reduced; also recorded: reduces the number of Osterix+ cells to control levels | restores | partially restored | partial restoration | Inhibition; also recorded: inhibits | enhanced; also recorded: maintained even after 28 days | supressed; also recorded: delayed | restored; also recorded: significantly restores | restores |
